US20230192897A1 (NUMAB THERAPEUTICS, published 2023)
Blank lines part the entries; values can stand above or below the binder they belong to.

Legend:
Fc tagged human PDL1 = molecular target: T1, Fc tagged human PDL1 (human, UniProt Q9NZQ7 19-239); test: SPR
T1 construct: Bought (Sino Biological, cat. 10084-H02H); captured on the SPR chip; also called PDL1-Fc chimeric protein
Summary of the method: (§1)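 Kinetics were fitted with a one-to-one Langmuir model to give apparent ka, kd and KD. Binders at 0.12-90 nM (three-fold series) flowed 3 min, with 10 min dissociation and 3 M MgCl₂ regeneration, on a Biacore T200.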

Fc tagged human CD137 = molecular target: T2, Fc tagged human CD137 (human, UniProt Q07011 24-186); test: SPR
T2 construct: also called CD137-Fc chimeric protein
Summary of the method: as §1

human PDL1 on cells = human PDL1 on cells (human, UniProt Q9NZQ7 19-290); test: cell-based or functional assay
[1] = molecular target: T3, CD137 on Jurkat NFkB reporter cells (human, UniProt Q07011 24-255); test: cell-based or functional assay
[2] = molecular target: T3, CD137 on Jurkat NFkB reporter cells; test: cell-based or functional assay; remark: listed apart in the source
biotinylated human PDL1 [3] = molecular target: T4, biotinylated human PDL1 (human, UniProt Q9NZQ7 19-238, limits assumed, biotinylated); test: competition ELISA B7.1/PDL1
T4 construct: also called biotinylated PDL1
Summary of the method: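 Test mixtures containing biotinylated human PDL1 were pre-incubated 1 h at room temperature, then incubated 1.5 h on the plate under agitation. Bound PDL1 detected with 10 ng/ml streptavidin-polyHRP40 and TMB, stopped at 6 min with HCl, read at 450 nm minus 690 nm. IC₅₀ from 4PL fit.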

biotinylated human PDL1 [4] = molecular target: T4, biotinylated human PDL1; test: competition ELISA PD-1/PDL1
human serum albumin = molecular target: T5, human serum albumin (human, UniProt P02768 25-609); test: SPR, SA coupled to chip, pH 5.5
T5 construct: Coupled directly to the CM5 chip; also called HSA; human SA
Experimental: Affinity of molecules to serum albumin (SA) of the different species was determined by SPR measurements using a Biacore T200 device (GE Healthcare). SA was directly coupled to a CM5 sensor chip (GE Healthcare) using amine coupling chemistry. […] The assay was run in a 1× PBS-Tween buffer at pH 5.5.

[5] = molecular target: T6, cynomolgus PDL1-Fc chimeric protein (cynomolgus monkey, UniProt G7PSE7 19-239); test: SPR
T6 construct: PDL1-Fc chimeric protein from different species captured on the chip
Summary of the method: as §1

- Kd (Fc tagged human PDL1): 9.2 pM
- kon (Fc tagged human PDL1): 4.2e+06 M⁻¹ s⁻¹
- Kd (Fc tagged human CD137): 1700 pM
- koff (Fc tagged human CD137): 0.00054 s⁻¹
- kon (Fc tagged human CD137): 330000 M⁻¹ s⁻¹
- IC50 (ng/ml), NF-AT potency assay, +HSA (human PDL1 on cells): 50.4 ng/mL
- rel. IC50 (avelumab/test), +HSA (human PDL1 on cells): 1.04 fold
- IC50 (ng/ml) (EC50 in Table 16C), NFkB reporter, HCC827 + IFNg, 24 h, +HSA [1]: 7.61 ng/mL
- rel. IC50 (PRO1186/test), 24 h [1]: 0.87 fold
- Area under the curve (calculated using PRO885 normalized data), first line (6 h by the order of the upper part) [2]: 191
- Area under the curve (calculated using PRO885 normalized data), second line (24 h by the order of the upper part) [2]: 207
- EC50 [ng/ml], NF-kB reporter, HCC827 + IFNg, +HSA, 6 h [2]: 7.38 ng/mL
- IC10/EC90 ratio, first line (6 h by the order of the upper part) [2]: 81.9
- IC10/EC90 ratio, second line (24 h by the order of the upper part) [2]: 523
- Maximum NF-kB activation (rel. to PRO1186) [%], first line (6 h by the order of the upper part) [2]: 108%
- Maximum NF-kB activation (rel. to PRO1186) [%], second line (24 h by the order of the upper part) [2]: 119%
- rel. Area under the curve (AUCsample/AUCPRO1186), first line (6 h by the order of the upper part) [2]: 1.11 fold
- rel. Area under the curve (AUCsample/AUCPRO1186), second line (24 h by the order of the upper part) [2]: 1.37 fold
- rel. EC50 (EC50, PRO1186/EC50, sample), NF-kB reporter, 6 h [2]: 1.74 fold
- rel. EC50 (EC50, PRO1186/EC50, sample), NF-kB reporter, 24 h [2]: 0.87 fold
- rel. IC10/EC90 (ratio of sample/ratio of PRO1186), first line (6 h by the order of the upper part) [2]: 0.25 fold
- rel. IC10/EC90 (ratio of sample/ratio of PRO1186), second line (24 h by the order of the upper part) [2]: 1.66 fold
- IC50 (biotinylated human PDL1 [3]): 10.7 ng/mL
- rel. IC50 (IC50 avelumab/IC50 test) (biotinylated human PDL1 [3]): 1.38 fold
- IC50 (biotinylated human PDL1 [4]): 2.65 ng/mL
- rel. IC50 (IC50 avelumab/IC50 test) (biotinylated human PDL1 [4]): 0.86 fold
- Kd (human serum albumin): 976 pM
B1: PRO1479 (other)
chain: DIQMTQSPASLSASVGDRVTITCQASQSIGTYLAWYQQKPGKPPKLLIYRAFILASGVPSRFSGSGSGTDFTLTISSLQPEDFATYYCQSNFYSDSTTIGPNAFGTGTKVTVLGGGGGSEVQLVESGGGLVQPGGSLRLSCAASGFSFSNSYWICWVRQAPGKCLEWIGCTFVGSSDSTYYANWAKGRFTISRDNSKNTVYLQMNSLRAEDTAVYYCARHPSDAVYGYANNLWGQGTLVTVSSGGGGSGGGGSGGGGSGGGGSIQMTQSPSSLSASVGDRVTITCQASQSINNVLAWYQQKPGKAPKLLIYRASTLASGVPSRFSGSGSGTDFTLTISSLQPEDFATYYCQSSYGNYGDFGCGTKVTVLGGGGGSEVQLVESGGGLVQPGGSLRLSCAASGFSFNSDYWIYWVRQAPGKGLEWIASIYGGSSGNTQYASWAQGRFTISRDNSKNTVYLQMNSLRAEDTAVYFCARGYVDYGGATDLWGQGTLVTVSSGGGGSGGGGSIQMTQSPSSLSASVGDRVTITCQSSESVYSNNQLSWYQQKPGQPPKLLIYDASDLASGVPSRFSGSGSGTDFTLTISSLQPEDFATYYCAGGFSSSSDTAFGGGTKLTVLGGGGGSGGGGSGGGGSGGGGSEVQLVESGGGLVQPGGSLRLSCAASGFSLSSNAMGWVRQAPGKGLEYIGIISVGGFTYYASWAKGRFTISRDNSKNTVYLQMNSLRAEDTATYFCARDRHGGDSSGAFYLWGQGTLVTVSS
notes: trispecific scDb-scFv; also called 38-02-A04 sc13 scDb-i/37-20-B03 sc09.1 scDb-o/19-01-H04 sc03 scFv

- Kd (Fc tagged human PDL1): 45 pM
- koff (Fc tagged human PDL1): 0.00027 s⁻¹
- kon (Fc tagged human PDL1): 6e+06 M⁻¹ s⁻¹
- koff [5]: 0.00032 s⁻¹
- kon [5]: 5.9e+06 M⁻¹ s⁻¹
- IC50 (ng/ml), NF-AT potency assay (human PDL1 on cells): 21.3 ng/mL
- rel. IC50 (avelumab/test) (human PDL1 on cells): 1.6 fold
- IC50 (biotinylated human PDL1 [3]): 4.05 ng/mL
- rel. IC50 (IC50 avelumab/IC50 test) (biotinylated human PDL1 [3]): 3.68 fold
- IC50 (biotinylated human PDL1 [4]): 0.57 ng/mL
- rel. IC50 (IC50 avelumab/IC50 test) (biotinylated human PDL1 [4]): 3.67 fold
B2: PRO1013 (scFv)
scFv: DIQMTQSPSSLSASVGDRVTITCQASQSIGTYLAWYQQKPGKAPKLLIYRAFILASGVPSRFSGSGSGTDFTLTISSLQPEDFATYYCQSNFYSDSTTIGPNAFGTGTKVTVLGGGGGSGGGGSGGGGSGGGGSQVQLVQSGAEVKKPGASVKVSCKASGFSFNSDYWIYWVRQAPGQGLEWMGSIYGGSSGNTQYASWAQGRVTMTRDTSISTAYMELSSLRSEDTAVYYCARGYVDYGGATDLWGQGTLVTVSS
notes: anti-PDL1 scFv; also called 37-20-B03 sc02 scFv; 37-20-B03 CDR, VH1
